Measurements taken from publication PMC546141.
Substitutions are numbered along the chain they refer to. Names may count otherwise.

T1: mPrrp-2xRBD (mouse, UniProt Q9JII5 1-201)
T1 sequence: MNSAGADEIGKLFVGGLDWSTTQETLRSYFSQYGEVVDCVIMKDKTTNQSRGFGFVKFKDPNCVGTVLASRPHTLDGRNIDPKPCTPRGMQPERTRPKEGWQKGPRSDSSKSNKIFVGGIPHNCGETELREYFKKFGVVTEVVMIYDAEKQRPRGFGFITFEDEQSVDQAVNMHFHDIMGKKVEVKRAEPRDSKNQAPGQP

B1: S-13 26-73 U52C (structured_RNA)
RNA: GGCAUAGCCAAAUAGUUUGUGGCCUUAGCUUAGUAUAGCUGCGGGCUAUGGGAUC
B2: S-13 26-73 U53C (structured_RNA)
RNA: B1 RNA with C29U, U30C

Target: T1, mPrrp-2xRBD
Experiment: EMSA

Binder | Kd [nM]
B1 | ~55
B2 | ~75
